Test system: human APP and β-secretase co-expressed in HEK 293T cells
Assay: HEK 293T cells co-expressing APP and β-secretase (BACE1): Aβ ELISA and β-CTF Western blot
Type: cell-based
Settings: APP and β-secretase co-expressed, ELISA, vs GFP control
Protocol: The experiment was performed according to the standard procedure in the ELISA analysis kit of Invitrogen Company. • a) The target protein was expressed in HEK 293T cell line. Cells were subcultured one day before transfection, and transfection was performed when the degree of cell adhesion reached 70%-80%. The transfection reagent was lipofectamine2000 (ThermoFisher). • b) 4-6 hours post transfection, medium were replaced with fresh cell culture medium. • c) 36-48 hours post transfection, the cell culture medium was collected, and then the ELISA process was performed or the cell culture medium was frozen in a −80° C. refrigerator. • d) 50 μl of standard samples and experimental samples were added to each well of the 96-well plate. • e) 50 μl of human-derived Aβ40 or Aβ42 or mouse-derived Aβ40 detection antibody was added to each well of the 96-well plate. • f) The above samples were shaken gently and placed at room temperature for 3 hours. • g) The liquid in the well were removed, and the plate was washed 4 times with 1× wash buffer. • h) 100 μl of the buffer containing 1× anti-Rabbit IgG HRP was added. • i) The plate was shaken gently and placed at room temperature for […]. • j) The liquid in the well were removed, and the well was washed 4 times with 1× wash buffer. • k) 100 μl of Stabilized Chromogen was added to each well, and the plate was placed in the dark for 30 minutes at room temperature. • l) 100 μl of Stop Solution was added to each well. • m) The absorbance at 450 nm was measured with a microplate reader. 2.4 qRT-PCR
48 hours after transfection of HEK 293T cells and N2A cells, or 4.5 days after lentivirus infection of neurons, media and lysates were collected. Aβ40 and Aβ42 in the culture medium and cell lysates were detected by an Aβ ELISA kit as indicated in the protocol. (Invitrogen Technology; KHB3481 for human Aβ40, KHB3441 for human Aβ42 and KMB3481 for mouse Aβ40).
Data were analyzed by GraphPad Prism software (v6) using unpaired, paired, or one-sample t-tests. Aβ40 and Aβ42 levels were normalized to the corresponding GFP controls. α-CTF levels were normalized to FL-APP and corresponding GFP controls. All data are represented as mean±SEM. Statistical significance was defined as p<0.05. One, two, three and four stars (*) in the graph indicate p-values <0.05, <0.01, <0.001 and <0.0001, respectively.

B1: CT ND5: SEQ ID NO: 22; ApoE CT with 5 N-terminal amino acids deleted (protein)
chain: MGSRTRDRLDEVKEQVAEVRAKLEEQAQQIRLQAEAFQARLKSWFEPLVEDMQRQWAGLVEKVQAAVGTSAAPVPSDNH
production of Aβ40: can still reduce Aβ40

B2: CT CD5: SEQ ID NO: 23; ApoE CT with 5 C-terminal amino acids deleted (protein)
chain: ARMEEMGSRTRDRLDEVKEQVAEVRAKLEEQAQQIRLQAEAFQARLKSWFEPLVEDMQRQWAGLVEKVQAAVGTSAAPV
production of Aβ40: still reduce the production of Aβ

B3: CT ND1: SEQ ID NO: 18; ApoE CT with 1 N-terminal amino acid deleted (protein)
chain: RMEEMGSRTRDRLDEVKEQVAEVRAKLEEQAQQIRLQAEAFQARLKSWFEPLVEDMQRQWAGLVEKVQAAVGTSAAPVPSDNH
production of Aβ40: can still reduce Aβ40

B4: CT NA4: SEQ ID NO: 16; ApoE CT with 4 original ApoE residues added to the N-terminus (protein)
chain: ERLRARMEEMGSRTRDRLDEVKEQVAEVRAKLEEQAQQIRLQAEAFQARLKSWFEPLVEDMQRQWAGLVEKVQAAVGTSAAPVPSDNH
production of Aβ40: completely lost the ability to reduce Aβ

B5: CT CD10: SEQ ID NO: 24; ApoE CT with 10 C-terminal amino acids deleted (protein)
chain: ARMEEMGSRTRDRLDEVKEQVAEVRAKLEEQAQQIRLQAEAFQARLKSWFEPLVEDMQRQWAGLVEKVQAAVGT
production of Aβ40: still reduce the production of Aβ

B6: CT NA5: SEQ ID NO: 17; ApoE CT with 5 original ApoE residues added to the N-terminus (protein)
chain: GERLRARMEEMGSRTRDRLDEVKEQVAEVRAKLEEQAQQIRLQAEAFQARLKSWFEPLVEDMQRQWAGLVEKVQAAVGTSAAPVPSDNH
production of Aβ40: completely lost the ability to reduce Aβ

B7: CT NA1: SEQ ID NO: 13; ApoE CT with 1 original ApoE residue added to the N-terminus (protein)
chain: RARMEEMGSRTRDRLDEVKEQVAEVRAKLEEQAQQIRLQAEAFQARLKSWFEPLVEDMQRQWAGLVEKVQAAVGTSAAPVPSDNH
production of Aβ40: still reduces the production of Aβ40

B8: CT NA2: SEQ ID NO: 14; ApoE CT with 2 original ApoE residues added to the N-terminus (protein)
chain: LRARMEEMGSRTRDRLDEVKEQVAEVRAKLEEQAQQIRLQAEAFQARLKSWFEPLVEDMQRQWAGLVEKVQAAVGTSAAPVPSDNH
production of Aβ40: completely lost the ability to reduce Aβ

B9: CT NA3: SEQ ID NO: 15; ApoE CT with 3 original ApoE residues added to the N-terminus (protein)
chain: RLRARMEEMGSRTRDRLDEVKEQVAEVRAKLEEQAQQIRLQAEAFQARLKSWFEPLVEDMQRQWAGLVEKVQAAVGTSAAPVPSDNH
production of Aβ40: completely lost the ability to reduce Aβ

B10: CT ND2: SEQ ID NO: 19; ApoE CT with 2 N-terminal amino acids deleted (protein)
chain: MEEMGSRTRDRLDEVKEQVAEVRAKLEEQAQQIRLQAEAFQARLKSWFEPLVEDMQRQWAGLVEKVQAAVGTSAAPVPSDNH
production of Aβ40: can still reduce Aβ40

Reference: patent US20250108100A1, “C-TERMINAL FRAGMENT OF APOLIPOPROTEIN E AND APPLICATION THEREOF IN INHIBITING y-SECRETASE ACTIVITY” (SYNPHATEC (SHANGHAI) BIOPHARMACEUTICAL TECHNOLOGY CO., LTD., priority 2022, published 2025)
